Test system: Escherichia coli TOP10
Test: shrunken log2 fold change of peptide-encoding DNA abundance (4.5 h post-induction vs induction); higher = less antimicrobial activity (less host growth inhibition)
Conditions: time post-induction: 4.5 h; library: site-saturation at positions 5, 18, 19, 20
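Also: peptides expressed intracellularly from a pBAD plasmid library in pooled LB shake-flask culture, induced with 0.3% L-arabinose, DNA abundance read by NGS, three biological replicates, DESeq2 with apeglm shrinkage.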

With RRIRMRPPRLPRPRPRPSMRPRP the “shrunken log2 fold change” value was 0.429.
With RRIRTRPPRLPRPRPRPFRYPRP the “shrunken log2 fold change” value was -0.0915.
RRIRKRPPRLPRPRPRPSNFPRP was tested, and the “shrunken log2 fold change” value was -0.198.
For RRIRRRPPRLPRPRPRPAKKPRP, the “shrunken log2 fold change” value was 1.04.
For RRIRTRPPRLPRPRPRPMRFPRP, the “shrunken log2 fold change” value was 0.00408.
For RRIRGRPPRLPRPRPRPCQGPRP, the “shrunken log2 fold change” value was 0.242.
In the case of RRIRRRPPRLPRPRPRPCQNPRP, the “shrunken log2 fold change” value is reported as -0.0482.
With RRIRLRPPRLPRPRPRPDQFPRP the “shrunken log2 fold change” value was 0.0392.
With RRIRLRPPRLPRPRPRPYIPPRP the “shrunken log2 fold change” value was -0.669.
With RRIRWRPPRLPRPRPRPPIEPRP the “shrunken log2 fold change” value was 0.702.
For RRIRCRPPRLPRPRPRPWLSPRP, the “shrunken log2 fold change” value was -0.215.
With RRIRERPPRLPRPRPRPMFDPRP the “shrunken log2 fold change” value was -0.121.
For RRIRCRPPRLPRPRPRPVWYPRP, the “shrunken log2 fold change” value was -0.184.
RRIRIRPPRLPRPRPRPPPAPRP was tested, and the “shrunken log2 fold change” value was 0.543.
In the case of RRIRRRPPRLPRPRPRPYLIPRP, the “shrunken log2 fold change” value is reported as -0.082.
In the case of RRIRYRPPRLPRPRPRPHCPPRP, the “shrunken log2 fold change” value is reported as -0.0417.
With RRIRCRPPRLPRPRPRPKWMPRP the “shrunken log2 fold change” value was 0.361.
For RRIRYRPPRLPRPRPRPDCAPRP, the “shrunken log2 fold change” value was -0.218.
RRIRKRPPRLPRPRPRPTKCPRP was tested, and the “shrunken log2 fold change” value was -0.184.
In the case of RRIRERPPRLPRPRPRPHQTPRP, the “shrunken log2 fold change” value is reported as -0.0225.
With RRIRERPPRLPRPRPRPRRRPRP the “shrunken log2 fold change” value was 0.261.
RRIRNRPPRLPRPRPRPFDQPRP was tested, and the “shrunken log2 fold change” value was -0.0155.
RRIRYRPPRLPRPRPRPSTMPRP was tested, and the “shrunken log2 fold change” value was -0.434.
RRIRVRPPRLPRPRPRPHVYPRP was tested, and the “shrunken log2 fold change” value was -0.13.
In the case of RRIRSRPPRLPRPRPRPSRCPRP, the “shrunken log2 fold change” value is reported as -0.134.
With RRIRGRPPRLPRPRPRPHDEPRP the “shrunken log2 fold change” value was 0.136.
With RRIRIRPPRLPRPRPRPDMKPRP the “shrunken log2 fold change” value was -0.0106.
In the case of RRIRFRPPRLPRPRPRPLDWPRP, the “shrunken log2 fold change” value is reported as -0.119.
RRIRRRPPRLPRPRPRPKVIPRP was tested, and the “shrunken log2 fold change” value was -0.256.
In the case of RRIRCRPPRLPRPRPRPCKDPRP, the “shrunken log2 fold change” value is reported as -0.142.
In the case of RRIRCRPPRLPRPRPRPGHPPRP, the “shrunken log2 fold change” value is reported as 0.00689.
In the case of RRIRFRPPRLPRPRPRPRYLPRP, the “shrunken log2 fold change” value is reported as -0.0779.
With RRIRQRPPRLPRPRPRPHQSPRP the “shrunken log2 fold change” value was 0.0405.
RRIRRRPPRLPRPRPRPRERPRP was tested, and the “shrunken log2 fold change” value was 1.02.
With RRIRRRPPRLPRPRPRPYDYPRP the “shrunken log2 fold change” value was 0.00863.
For RRIRNRPPRLPRPRPRPTPEPRP, the “shrunken log2 fold change” value was 0.0889.
In the case of RRIRNRPPRLPRPRPRPAWAPRP, the “shrunken log2 fold change” value is reported as -0.0271.
With RRIRRRPPRLPRPRPRPTFCPRP the “shrunken log2 fold change” value was 0.0676.
For RRIRRRPPRLPRPRPRPRSQPRP, the “shrunken log2 fold change” value was 0.533.
In the case of RRIRMRPPRLPRPRPRPEWYPRP, the “shrunken log2 fold change” value is reported as 0.0183.
RRIRIRPPRLPRPRPRPMSEPRP was tested, and the “shrunken log2 fold change” value was -0.00782.
In the case of RRIRPRPPRLPRPRPRPVFHPRP, the “shrunken log2 fold change” value is reported as -0.178.
For RRIRPRPPRLPRPRPRPRENPRP, the “shrunken log2 fold change” value was 0.672.
In the case of RRIRNRPPRLPRPRPRPSRIPRP, the “shrunken log2 fold change” value is reported as -0.234.
In the case of RRIRHRPPRLPRPRPRPPVVPRP, the “shrunken log2 fold change” value is reported as 0.253.
In the case of RRIRHRPPRLPRPRPRPFHIPRP, the “shrunken log2 fold change” value is reported as -0.0345.
For RRIRSRPPRLPRPRPRPICVPRP, the “shrunken log2 fold change” value was -0.111.
For RRIRRRPPRLPRPRPRPHSMPRP, the “shrunken log2 fold change” value was -0.118.
In the case of RRIRARPPRLPRPRPRPHCAPRP, the “shrunken log2 fold change” value is reported as 0.149.
RRIRWRPPRLPRPRPRPEQLPRP was tested, and the “shrunken log2 fold change” value was 0.00937.
RRIRHRPPRLPRPRPRPTMPPRP was tested, and the “shrunken log2 fold change” value was -0.00312.
For RRIRWRPPRLPRPRPRPHFGPRP, the “shrunken log2 fold change” value was 0.168.
For RRIRLRPPRLPRPRPRPMHHPRP, the “shrunken log2 fold change” value was 0.0581.
With RRIRKRPPRLPRPRPRPQWHPRP the “shrunken log2 fold change” value was 0.104.
For RRIRHRPPRLPRPRPRPYWMPRP, the “shrunken log2 fold change” value was -1.63.
With RRIRNRPPRLPRPRPRPSHYPRP the “shrunken log2 fold change” value was -1.22.
RRIRWRPPRLPRPRPRPEAIPRP was tested, and the “shrunken log2 fold change” value was 0.25.
For RRIRERPPRLPRPRPRPTVTPRP, the “shrunken log2 fold change” value was 0.0913.
In the case of RRIRLRPPRLPRPRPRPVRHPRP, the “shrunken log2 fold change” value is reported as 0.19.
With RRIRGRPPRLPRPRPRPACDPRP the “shrunken log2 fold change” value was 0.964.
In the case of RRIRKRPPRLPRPRPRPATMPRP, the “shrunken log2 fold change” value is reported as 0.49.
RRIRVRPPRLPRPRPRPEFHPRP was tested, and the “shrunken log2 fold change” value was -0.489.
RRIRDRPPRLPRPRPRPKKVPRP was tested, and the “shrunken log2 fold change” value was 0.241.
For RRIRHRPPRLPRPRPRPFRFPRP, the “shrunken log2 fold change” value was -0.132.
With RRIRRRPPRLPRPRPRPWWEPRP the “shrunken log2 fold change” value was 1.82.
In the case of RRIRKRPPRLPRPRPRPHTNPRP, the “shrunken log2 fold change” value is reported as 0.192.
For RRIRFRPPRLPRPRPRPLHCPRP, the “shrunken log2 fold change” value was 0.0254.
RRIRIRPPRLPRPRPRPFEYPRP was tested, and the “shrunken log2 fold change” value was -0.709.
With RRIRPRPPRLPRPRPRPFLWPRP the “shrunken log2 fold change” value was 0.0275.
In the case of RRIRSRPPRLPRPRPRPMYEPRP, the “shrunken log2 fold change” value is reported as 0.0571.
In the case of RRIRYRPPRLPRPRPRPEGVPRP, the “shrunken log2 fold change” value is reported as -0.0041.
RRIRVRPPRLPRPRPRPMGCPRP was tested, and the “shrunken log2 fold change” value was 0.0117.
In the case of RRIRKRPPRLPRPRPRPDQFPRP, the “shrunken log2 fold change” value is reported as -0.0391.
For RRIRQRPPRLPRPRPRPGASPRP, the “shrunken log2 fold change” value was 0.326.
RRIRGRPPRLPRPRPRPGHQPRP was tested, and the “shrunken log2 fold change” value was 0.124.
With RRIRKRPPRLPRPRPRPWDLPRP the “shrunken log2 fold change” value was -0.136.
With RRIRSRPPRLPRPRPRPCYGPRP the “shrunken log2 fold change” value was -0.523.
In the case of RRIRVRPPRLPRPRPRPVKCPRP, the “shrunken log2 fold change” value is reported as -0.163.
With RRIRRRPPRLPRPRPRPEISPRP the “shrunken log2 fold change” value was 0.17.
In the case of RRIRGRPPRLPRPRPRPFHHPRP, the “shrunken log2 fold change” value is reported as -0.126.
In the case of RRIRIRPPRLPRPRPRPTCSPRP, the “shrunken log2 fold change” value is reported as -0.371.
In the case of RRIRKRPPRLPRPRPRPAVMPRP, the “shrunken log2 fold change” value is reported as 0.881.
In the case of RRIRKRPPRLPRPRPRPWCWPRP, the “shrunken log2 fold change” value is reported as 0.357.
With RRIRCRPPRLPRPRPRPGKYPRP the “shrunken log2 fold change” value was -0.316.
RRIRTRPPRLPRPRPRPQFIPRP was tested, and the “shrunken log2 fold change” value was -0.07.
In the case of RRIRHRPPRLPRPRPRPIKYPRP, the “shrunken log2 fold change” value is reported as -0.194.
In the case of RRIRERPPRLPRPRPRPAQRPRP, the “shrunken log2 fold change” value is reported as 0.324.
RRIRRRPPRLPRPRPRPGAYPRP was tested, and the “shrunken log2 fold change” value was 0.00783.
With RRIRMRPPRLPRPRPRPRLCPRP the “shrunken log2 fold change” value was 1.66.
RRIRLRPPRLPRPRPRPDKNPRP was tested, and the “shrunken log2 fold change” value was -0.0881.
With RRIRGRPPRLPRPRPRPTHWPRP the “shrunken log2 fold change” value was 0.629.
RRIRRRPPRLPRPRPRPDPLPRP was tested, and the “shrunken log2 fold change” value was 0.119.
In the case of RRIRLRPPRLPRPRPRPQSYPRP, the “shrunken log2 fold change” value is reported as -0.242.
For RRIRQRPPRLPRPRPRPMRKPRP, the “shrunken log2 fold change” value was 0.0266.
With RRIRSRPPRLPRPRPRPNVRPRP the “shrunken log2 fold change” value was -0.0771.
With RRIRGRPPRLPRPRPRPCYNPRP the “shrunken log2 fold change” value was 0.0333.
In the case of RRIRLRPPRLPRPRPRPPMGPRP, the “shrunken log2 fold change” value is reported as 0.194.
In the case of RRIRRRPPRLPRPRPRPCLHPRP, the “shrunken log2 fold change” value is reported as 0.0897.
RRIRPRPPRLPRPRPRPIGFPRP was tested, and the “shrunken log2 fold change” value was 0.2.
For RRIRPRPPRLPRPRPRPAAMPRP, the “shrunken log2 fold change” value was 0.302.
RRIRKRPPRLPRPRPRPYEKPRP was tested, and the “shrunken log2 fold change” value was -0.0121.
With RRIRRRPPRLPRPRPRPQMFPRP the “shrunken log2 fold change” value was -0.25.
With RRIRSRPPRLPRPRPRPAQQPRP the “shrunken log2 fold change” value was 0.409.
With RRIRLRPPRLPRPRPRPMPVPRP the “shrunken log2 fold change” value was 0.132.
RRIRLRPPRLPRPRPRPVNLPRP was tested, and the “shrunken log2 fold change” value was 0.0275.
With RRIRIRPPRLPRPRPRPEHMPRP the “shrunken log2 fold change” value was -0.0778.
With RRIRQRPPRLPRPRPRPNISPRP the “shrunken log2 fold change” value was -0.565.
With RRIRARPPRLPRPRPRPYISPRP the “shrunken log2 fold change” value was -0.132.
In the case of RRIRKRPPRLPRPRPRPGPVPRP, the “shrunken log2 fold change” value is reported as 0.531.
In the case of RRIRQRPPRLPRPRPRPRWQPRP, the “shrunken log2 fold change” value is reported as 0.0759.
In the case of RRIRLRPPRLPRPRPRPFTSPRP, the “shrunken log2 fold change” value is reported as -0.153.
With RRIRLRPPRLPRPRPRPEQQPRP the “shrunken log2 fold change” value was 0.0529.
For RRIRSRPPRLPRPRPRPYQCPRP, the “shrunken log2 fold change” value was -0.00419.
For RRIRKRPPRLPRPRPRPASIPRP, the “shrunken log2 fold change” value was 0.0215.
For RRIRQRPPRLPRPRPRPMIDPRP, the “shrunken log2 fold change” value was -0.517.
For RRIRSRPPRLPRPRPRPLKSPRP, the “shrunken log2 fold change” value was 0.0254.
In the case of RRIRGRPPRLPRPRPRPLRDPRP, the “shrunken log2 fold change” value is reported as 1.3.
For RRIRSRPPRLPRPRPRPFEKPRP, the “shrunken log2 fold change” value was 0.00827.
In the case of RRIRTRPPRLPRPRPRPTIMPRP, the “shrunken log2 fold change” value is reported as -0.597.
RRIRMRPPRLPRPRPRPGKLPRP was tested, and the “shrunken log2 fold change” value was 0.515.
In the case of RRIRIRPPRLPRPRPRPPHMPRP, the “shrunken log2 fold change” value is reported as -0.416.
In the case of RRIRLRPPRLPRPRPRPMPGPRP, the “shrunken log2 fold change” value is reported as 0.437.
In the case of RRIRGRPPRLPRPRPRPLFLPRP, the “shrunken log2 fold change” value is reported as 0.0673.
RRIRWRPPRLPRPRPRPCLNPRP was tested, and the “shrunken log2 fold change” value was 0.0137.
RRIRARPPRLPRPRPRPLCQPRP was tested, and the “shrunken log2 fold change” value was 0.42.
